Assay results from patent publication US20160297884A1 (Pfizer, published 2016).
Residue numbers refer to the chain shown, from its start.

B1: L3.PY/L1.AH/H2.QL (antibody, V domains shown)
VH: EVQLLESGGGLVQPGGSLRLSCAASGFTFGSYAMTWVRQAPGKGLEWVSAISGSGGNTFYADQLKGRFTISRDNSKNTLYLQMNSLRAEDTAVYYCARVSPIASGMDYWGQGTLVTVSS
VL: EIVLTQSPGTLSLSPGERATLSCRASQSVSAHYLAWYQQKPGQAPRLLIYGASSRATGIPDRFSGSGSGTDFTLTISRLEPEDFAVYYCQHYPYPPSFTFGQGTKVEIK
notes: IgG
B2: L3.PY/L1.AH/H2.QR (antibody, V domains shown)
VH: B1 VH with L64R
VL: B1 VL
notes: IgG
B3: L3.PY/L1.AH/H2.YQ (antibody, V domains shown)
VH: B1 VH with G53Y, S54Q, Q63S, L64V
VL: B1 VL
notes: IgG
B4: L3.PY/L1.AH/H3.AE (antibody, V domains shown)
VH: B1 VH with Q63S, L64V, S104A, G105E
VL: B1 VL
notes: IgG
B5: L3.PY/L1.AH/H3.AQ (antibody, V domains shown)
VH: B1 VH with Q63S, L64V, S104A, G105Q
VL: B1 VL
notes: IgG
B6: L3.PY/L1.AH/H3.YA (antibody, V domains shown)
VH: B1 VH with Q63S, L64V, A103Y, S104A
VL: B1 VL
notes: IgG
B7: L3.PY/L1.AH/P6E01 (antibody, V domains shown)
VH: B1 VH with Q63S, L64V
VL: B1 VL
notes: IgG
B8: L3.PY/L1.FF/P6E01 (antibody, V domains shown)
VH: B1 VH with Q63S, L64V
VL: B1 VL with A31S, H32F, Y33F
notes: IgG
B9: L3.PY/L1.PH/P6E01 (antibody, V domains shown)
VH: B1 VH with Q63S, L64V
VL: B1 VL with A31P
notes: IgG
B10: L3.PY/L1.PS/H2.DY (antibody, V domains shown)
VH: B1 VH with S52D, G53Y, Q63S, L64V
VL: B1 VL with A31S, H32S, L34P, A35S
notes: IgG
B11: L3.PY/L1.PS/H2.HA (antibody, V domains shown)
VH: B1 VH with G53H, S54A, Q63S, L64V
VL: B1 VL with A31S, H32S, L34P, A35S
notes: IgG
B12: L3.PY/L1.PS/H2.LT (antibody, V domains shown)
VH: B1 VH with G53L, S54T, Q63S, L64V
VL: B1 VL with A31S, H32S, L34P, A35S
notes: IgG
B13: L3.PY/L1.PS/H2.QL (antibody, V domains shown)
VH: B1 VH
VL: B1 VL with A31S, H32S, L34P, A35S
notes: IgG
B14: L3.PY/L1.PS/H2.YQ (antibody, V domains shown)
VH: B1 VH with G53Y, S54Q, Q63S, L64V
VL: B1 VL with A31S, H32S, L34P, A35S
notes: IgG
B15: L3.PY/L1.PS/H3.AE (antibody, V domains shown)
VH: B1 VH with Q63S, L64V, S104A, G105E
VL: B1 VL with A31S, H32S, L34P, A35S
notes: IgG
B16: L3.PY/L1.PS/H3.AQ (antibody, V domains shown)
VH: B1 VH with Q63S, L64V, S104A, G105Q
VL: B1 VL with A31S, H32S, L34P, A35S
notes: IgG
B17: L3.PY/L1.PS/H3.TAQ (antibody, V domains shown)
VH: B1 VH with Q63S, L64V, A97T, S104A, G105Q
VL: B1 VL with A31S, H32S, L34P, A35S
notes: IgG
B18: L3.PY/L1.PS/H3.YA (antibody, V domains shown)
VH: B1 VH with Q63S, L64V, A103Y, S104A
VL: B1 VL with A31S, H32S, L34P, A35S
notes: IgG
B19: L3.PY/L1.PS/P6E01 (antibody, V domains shown)
VH: B1 VH with Q63S, L64V
VL: B1 VL with A31S, H32S, L34P, A35S
notes: IgG

target: T1, Human BCMA (human, UniProt Q02223 1-54, limits assumed); assay: SPR, IgG immobilised, 37 C
T1 construct: Soluble analyte in SPR; construct not described; also called huBCMA; B-cell maturation antigen
T1 sequence (looked up): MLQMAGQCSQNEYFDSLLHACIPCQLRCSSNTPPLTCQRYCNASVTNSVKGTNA
Outline: (§1)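 IgGs were amine-coupled (EDC/NHS, 20 μg/mL in acetate pH 4.5) and BCMA, human or cynomolgus, was injected by kinetic titration at 0.08, 0.4, 2, 10 and 50 nM, 2 min each, in HBS-T+ pH 7.4 with 1 mg/mL BSA at 37° C or 25° C. Dissociation was followed for 2 hours.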

Binder	Kd [nM]	T ½ [min]	koff [s⁻¹]	kon [M⁻¹ s⁻¹]
B1	0.53	7.22	0.0016	3.04e+06
B2	0.58	6.39	0.00181	3.13e+06
B3	0.8	6	0.00193	2.42e+06
B4	0.52	6.7	0.00173	3.32e+06
B5	0.65	5.85	0.00197	3.03e+06
B6	0.5	7.73	0.0015	3e+06
B7	0.49	9.19	0.00126	2.55e+06
B8	0.59	8.18	0.00141	2.39e+06
B9	0.32	12.7	0.000913	2.81e+06
B10	1.12	3.2	0.00361	3.22e+06
B11	3.21	1.09	0.0106	3.3e+06
B12	1.37	2.49	0.00465	3.4e+06
B13	20.6	0.04	0.314	1.52e+07
B14	1.28	2.69	0.0043	3.35e+06
B15	0.46	7.93	0.00146	3.14e+06
B16	0.55	6.46	0.00179	3.26e+06
B17	0.76	4.7	0.00246	3.25e+06
B18	2.95	1.28	0.00905	3.07e+06
B19	0.45	10.2	0.00113	2.49e+06

target: T2, cynomolgus monkey BCMA (cynomolgus monkey, UniProt A0A2K5UD97 1-53); assay: SPR, IgG immobilised, 37 C
T2 construct: Soluble analyte in SPR; construct not described; also called cyBCMA; Cyno BCMA
Outline: as §1

T2 sequence (A0A2K5UD97 entry or part of it): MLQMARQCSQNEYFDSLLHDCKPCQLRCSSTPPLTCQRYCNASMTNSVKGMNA

Binder	Kd [nM]	T ½ [min]	koff [s⁻¹]	kon [M⁻¹ s⁻¹]
B1	3.65	1.21	0.00955	2.62e+06
B2	2.23	2.35	0.00491	2.2e+06
B3	2.74	2.68	0.00431	1.58e+06
B4	1.58	3.25	0.00356	2.25e+06
B5	1.78	2.9	0.00399	2.24e+06
B6	2.22	2.2	0.00526	2.37e+06
B7	2.65	2.02	0.00572	2.16e+06
B8	2.41	1.96	0.00591	2.45e+06
B9	3.63	1.46	0.00789	2.17e+06
B10	1.99	3.06	0.00378	1.9e+06
B11	1.86	4.3	0.00269	1.45e+06
B12	1.89	2.81	0.00411	2.17e+06
B13	0.97	18.2	0.000636	657000
B14	1.87	3.09	0.00374	2e+06
B15	1.68	2.8	0.00413	2.46e+06
B16	1.72	2.67	0.00433	2.52e+06
B17	2.14	2.09	0.00552	2.58e+06
B18	5.65	1.16	0.00998	1.77e+06
B19	2.79	1.91	0.00606	2.17e+06
